Results published in PMC8284666, “Biochemical characterization of protease activity of Nsp3 from SARS-CoV-2 and its inhibition by nanobodies” (PLoS ONE, 2021).

B1: NbSL17, displayed on yeast (VHH)
VHH: QVQLQESGGGLVQAGGSLRLSCAASGSISDSTRMGWYRQAPGKERELVATITYGSTTYYADSVKGRFTISRDNAKNTVYLQMNSLKPEDTAVYYCAAFDENVYVYRPYHYYWGQGTQVTVSS
B2: NbSL19, displayed on yeast (VHH)
VHH: QVQLQESGGGLVQAGGSLRLSCAASGSIFFQAYMGWYRQAPGKERELVAGIDAGTTTYYADSVKGRFTISRDNAKNTVYLQMNSLKPEDTAVYYCAAEYFWNYNPYRGTNSTHPYWGQGTQVTVSS

Target: T1, Biotinylated AVI-PLpro wild type (SARS-CoV-2 Nsp3 743-1072) (SARS-CoV-2, Wuhan-Hu-1 (MN908947.3), UniProt P0DTD1, biotin (BirA biotinylation of the Avi tag))
T1 construct: also called biotinylated PLpro; WT PLpro^CoV-2
Test: flow cytometry on cells
Details: one partner purified

| Binder | binding result |
| --- | --- |
| B1 | binds |
| B2 | binds |
